# Target: Polycomb Repressive Complex 2 (PRC2), purified through FLAG-tagged human EED from HeLa or HEK293T nuclear … (human, UniProt O75530 1-441; Q15910 1-746)
# Experiment: cell-based or functional assay
# Sequence of Polycomb Repressive Complex 2 (PRC2), purified through FLAG-tagged human EED from HeLa or HEK293T nuclear … (O75530 whole entry, chain 1 of 2): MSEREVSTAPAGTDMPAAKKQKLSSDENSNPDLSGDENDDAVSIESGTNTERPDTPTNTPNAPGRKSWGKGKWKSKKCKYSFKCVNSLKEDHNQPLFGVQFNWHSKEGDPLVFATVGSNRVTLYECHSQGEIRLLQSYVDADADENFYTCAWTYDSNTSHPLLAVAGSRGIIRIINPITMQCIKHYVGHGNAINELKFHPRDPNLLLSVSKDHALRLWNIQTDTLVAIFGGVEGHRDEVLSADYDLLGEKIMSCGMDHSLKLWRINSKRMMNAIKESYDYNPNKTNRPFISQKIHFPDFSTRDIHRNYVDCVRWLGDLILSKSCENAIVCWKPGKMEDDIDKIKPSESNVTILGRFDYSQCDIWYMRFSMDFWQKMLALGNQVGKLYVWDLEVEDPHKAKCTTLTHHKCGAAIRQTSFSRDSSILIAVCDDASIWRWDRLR
# Sequence of Polycomb Repressive Complex 2 (PRC2), purified through FLAG-tagged human EED from HeLa or HEK293T nuclear … (Q15910 whole entry, chain 2 of 2): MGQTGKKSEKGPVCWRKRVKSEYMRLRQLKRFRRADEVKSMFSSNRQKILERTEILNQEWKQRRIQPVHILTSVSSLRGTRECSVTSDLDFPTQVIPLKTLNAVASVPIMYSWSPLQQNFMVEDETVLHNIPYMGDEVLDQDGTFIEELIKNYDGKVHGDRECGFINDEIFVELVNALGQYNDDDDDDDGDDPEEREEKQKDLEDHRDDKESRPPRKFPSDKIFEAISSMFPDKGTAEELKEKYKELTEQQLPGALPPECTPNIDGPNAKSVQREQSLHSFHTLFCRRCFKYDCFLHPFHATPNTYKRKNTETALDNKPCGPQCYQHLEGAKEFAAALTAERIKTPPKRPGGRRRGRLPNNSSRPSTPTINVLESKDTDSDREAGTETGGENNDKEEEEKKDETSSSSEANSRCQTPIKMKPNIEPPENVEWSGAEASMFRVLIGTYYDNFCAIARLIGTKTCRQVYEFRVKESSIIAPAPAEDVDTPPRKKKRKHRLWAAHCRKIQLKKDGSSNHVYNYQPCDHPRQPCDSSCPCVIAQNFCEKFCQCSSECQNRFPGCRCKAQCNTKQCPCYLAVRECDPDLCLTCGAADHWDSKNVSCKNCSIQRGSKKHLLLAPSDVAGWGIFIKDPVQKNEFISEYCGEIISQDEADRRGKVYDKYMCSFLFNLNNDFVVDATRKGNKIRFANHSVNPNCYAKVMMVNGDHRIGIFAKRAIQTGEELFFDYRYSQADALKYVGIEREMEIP
binder,measurement,value
KQLATKAARISAPSTGGVKK [H3 peptide (18-37) with Lys27 replaced by Ile],"IC50, in vitro PRC2 methylation reactions",8.9 µM
